Assay [1] concerns the target T1, human collagen type I, acid soluble, extracted from placenta (Sigma C7774) (human, UniProt P02452 162-1218; P08123 80-1119).
T1 construct: tissue extract, gelled and dried in wells; also called dried human collagen; h-Collagen
In words: dried collagen assay.

Assay [2] has as its target T2, rat collagen, acid soluble, type I, rat tail (Upstate 08-115) (rat, UniProt P02454 152-1207; P02466 86-1125).
T2 construct: tissue extract, gelled and dried in wells; also called dried rat collagen
In words: dried collagen assay.

Bridge positions count the residues as written; N and C are the ends. Square brackets hold non-standard residues; d marks the D form. Primed or numbered codes have the meaning given here. Side chains are listed from the residue outwards. Ends that are not written are not given here. * marks the point of attachment. Bpa = N[C@@H](Cc1ccc(C(=O)c2ccccc2)cc1)C(=O)O; Gd^D = GdDOTAGA (gadolinium DOTAGA chelate); Tyr(3-Cl) = N[C@@H](Cc1ccc(O)c(Cl)c1)C(=O)O; Bip = N[C@@H](Cc1ccc(-c2ccccc2)cc1)C(=O)O; Gd^T(3) = GdDTPA attached via thiourea; 1Nal = N[C@@H](Cc1cccc2ccccc12)C(=O)O; 2Nal = N[C@@H](Cc1ccc2ccccc2c1)C(=O)O; Bta = N[C@@H](Cc1csc2ccccc12)C(=O)O; hPhe = N[C@@H](CCc1ccccc1)C(=O)O; 2Pal = N[C@@H](Cc1ccccn1)C(=O)O; Cha = N[C@@H](CC1CCCCC1)C(=O)O; K(Gd^T)Gd^T = not defined here; Pen = CC(C)(S)[C@H](N)C(=O)O; Gd^G = not defined here; Gd^T = not defined here; Gd^T″ = GdDTPA-thiourea; Cbz = O=C(OCc1ccccc1)*; Dap = NC[C@H](N)C(=O)O; AEEA = NCCOCCOCC(=O)O

T2 sequence (P02454 152-1207, chain 1 of 2): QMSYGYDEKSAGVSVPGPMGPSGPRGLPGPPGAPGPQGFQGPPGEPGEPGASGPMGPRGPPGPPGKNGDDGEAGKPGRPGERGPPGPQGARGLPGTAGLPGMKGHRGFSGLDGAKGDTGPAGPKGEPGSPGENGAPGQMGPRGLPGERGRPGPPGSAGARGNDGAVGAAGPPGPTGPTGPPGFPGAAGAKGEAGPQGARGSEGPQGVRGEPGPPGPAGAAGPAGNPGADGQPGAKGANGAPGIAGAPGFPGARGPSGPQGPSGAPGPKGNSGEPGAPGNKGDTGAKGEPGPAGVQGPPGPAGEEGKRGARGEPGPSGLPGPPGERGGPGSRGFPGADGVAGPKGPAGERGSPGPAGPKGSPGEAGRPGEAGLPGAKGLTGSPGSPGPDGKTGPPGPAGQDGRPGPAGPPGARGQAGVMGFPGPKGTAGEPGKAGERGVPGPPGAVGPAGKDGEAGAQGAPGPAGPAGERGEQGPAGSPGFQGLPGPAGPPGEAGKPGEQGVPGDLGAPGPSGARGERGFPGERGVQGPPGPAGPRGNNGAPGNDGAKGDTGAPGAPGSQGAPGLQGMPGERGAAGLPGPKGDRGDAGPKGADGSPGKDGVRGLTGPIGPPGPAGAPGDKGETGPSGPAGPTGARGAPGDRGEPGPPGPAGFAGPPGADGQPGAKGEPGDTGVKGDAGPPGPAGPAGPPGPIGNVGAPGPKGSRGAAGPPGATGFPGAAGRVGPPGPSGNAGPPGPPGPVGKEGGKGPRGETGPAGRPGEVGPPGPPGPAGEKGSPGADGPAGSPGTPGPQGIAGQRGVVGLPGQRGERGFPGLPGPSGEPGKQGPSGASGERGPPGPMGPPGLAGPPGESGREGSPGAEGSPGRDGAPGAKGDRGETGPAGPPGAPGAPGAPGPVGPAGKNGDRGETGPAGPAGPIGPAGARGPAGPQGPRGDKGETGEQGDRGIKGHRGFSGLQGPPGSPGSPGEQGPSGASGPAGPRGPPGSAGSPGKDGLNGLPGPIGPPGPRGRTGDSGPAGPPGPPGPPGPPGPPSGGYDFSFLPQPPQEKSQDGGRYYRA
T2 sequence (P02466 86-1125, chain 2 of 2): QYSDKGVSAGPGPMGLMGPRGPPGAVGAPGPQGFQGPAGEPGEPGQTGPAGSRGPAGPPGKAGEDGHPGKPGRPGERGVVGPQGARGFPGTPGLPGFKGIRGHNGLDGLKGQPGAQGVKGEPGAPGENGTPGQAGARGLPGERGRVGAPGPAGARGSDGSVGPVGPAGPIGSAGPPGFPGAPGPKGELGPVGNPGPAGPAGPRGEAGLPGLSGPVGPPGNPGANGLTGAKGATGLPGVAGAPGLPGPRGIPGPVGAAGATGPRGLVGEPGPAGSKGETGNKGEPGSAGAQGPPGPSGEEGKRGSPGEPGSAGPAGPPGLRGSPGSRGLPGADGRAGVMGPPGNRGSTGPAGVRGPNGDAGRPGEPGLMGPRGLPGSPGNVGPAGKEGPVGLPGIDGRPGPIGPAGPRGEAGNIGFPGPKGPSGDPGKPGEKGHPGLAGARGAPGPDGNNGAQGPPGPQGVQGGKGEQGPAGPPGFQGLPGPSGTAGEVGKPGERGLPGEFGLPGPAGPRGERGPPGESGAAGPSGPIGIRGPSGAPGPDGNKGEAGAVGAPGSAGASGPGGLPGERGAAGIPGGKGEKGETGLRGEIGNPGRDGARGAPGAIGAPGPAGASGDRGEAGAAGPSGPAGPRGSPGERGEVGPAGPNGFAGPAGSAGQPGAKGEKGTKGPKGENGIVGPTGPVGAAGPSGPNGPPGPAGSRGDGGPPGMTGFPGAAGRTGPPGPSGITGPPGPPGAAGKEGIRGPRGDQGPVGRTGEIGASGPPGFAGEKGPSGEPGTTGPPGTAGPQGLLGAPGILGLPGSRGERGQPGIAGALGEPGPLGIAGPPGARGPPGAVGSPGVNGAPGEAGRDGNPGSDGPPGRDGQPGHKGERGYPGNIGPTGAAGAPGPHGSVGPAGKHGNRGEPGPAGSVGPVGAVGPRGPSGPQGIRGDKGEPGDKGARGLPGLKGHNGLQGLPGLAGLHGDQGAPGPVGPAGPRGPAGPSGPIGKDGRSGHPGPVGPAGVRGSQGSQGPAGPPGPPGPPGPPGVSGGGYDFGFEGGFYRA
T1 sequence (P02452 162-1218 limits assumed, chain 1 of 2): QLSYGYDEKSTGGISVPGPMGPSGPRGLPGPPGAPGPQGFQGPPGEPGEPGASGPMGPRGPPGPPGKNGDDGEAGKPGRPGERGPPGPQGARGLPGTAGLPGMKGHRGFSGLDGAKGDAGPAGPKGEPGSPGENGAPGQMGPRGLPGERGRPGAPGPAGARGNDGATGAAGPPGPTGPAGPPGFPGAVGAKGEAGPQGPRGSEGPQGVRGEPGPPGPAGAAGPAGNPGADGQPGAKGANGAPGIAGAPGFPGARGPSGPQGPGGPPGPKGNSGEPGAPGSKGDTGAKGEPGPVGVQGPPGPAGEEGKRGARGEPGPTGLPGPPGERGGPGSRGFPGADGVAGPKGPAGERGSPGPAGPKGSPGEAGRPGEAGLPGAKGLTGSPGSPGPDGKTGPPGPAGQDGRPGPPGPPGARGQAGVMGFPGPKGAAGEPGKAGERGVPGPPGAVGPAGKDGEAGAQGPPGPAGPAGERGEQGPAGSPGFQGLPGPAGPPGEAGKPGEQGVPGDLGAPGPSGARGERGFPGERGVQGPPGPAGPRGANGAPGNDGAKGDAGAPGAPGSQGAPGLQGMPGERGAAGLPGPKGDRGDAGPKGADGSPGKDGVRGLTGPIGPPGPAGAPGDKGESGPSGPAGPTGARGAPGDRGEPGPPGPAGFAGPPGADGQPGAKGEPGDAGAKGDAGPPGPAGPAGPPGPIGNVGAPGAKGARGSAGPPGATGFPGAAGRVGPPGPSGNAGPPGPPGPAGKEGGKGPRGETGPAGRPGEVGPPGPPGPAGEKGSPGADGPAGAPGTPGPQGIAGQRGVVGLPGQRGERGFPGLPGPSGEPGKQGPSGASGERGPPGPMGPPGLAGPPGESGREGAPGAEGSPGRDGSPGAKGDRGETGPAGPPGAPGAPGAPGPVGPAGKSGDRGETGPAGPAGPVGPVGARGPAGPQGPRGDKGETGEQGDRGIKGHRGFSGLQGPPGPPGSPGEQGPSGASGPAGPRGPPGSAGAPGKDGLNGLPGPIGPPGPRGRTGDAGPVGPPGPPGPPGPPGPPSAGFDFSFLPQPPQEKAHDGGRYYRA
T1 sequence (P08123 80-1119 limits assumed, chain 2 of 2): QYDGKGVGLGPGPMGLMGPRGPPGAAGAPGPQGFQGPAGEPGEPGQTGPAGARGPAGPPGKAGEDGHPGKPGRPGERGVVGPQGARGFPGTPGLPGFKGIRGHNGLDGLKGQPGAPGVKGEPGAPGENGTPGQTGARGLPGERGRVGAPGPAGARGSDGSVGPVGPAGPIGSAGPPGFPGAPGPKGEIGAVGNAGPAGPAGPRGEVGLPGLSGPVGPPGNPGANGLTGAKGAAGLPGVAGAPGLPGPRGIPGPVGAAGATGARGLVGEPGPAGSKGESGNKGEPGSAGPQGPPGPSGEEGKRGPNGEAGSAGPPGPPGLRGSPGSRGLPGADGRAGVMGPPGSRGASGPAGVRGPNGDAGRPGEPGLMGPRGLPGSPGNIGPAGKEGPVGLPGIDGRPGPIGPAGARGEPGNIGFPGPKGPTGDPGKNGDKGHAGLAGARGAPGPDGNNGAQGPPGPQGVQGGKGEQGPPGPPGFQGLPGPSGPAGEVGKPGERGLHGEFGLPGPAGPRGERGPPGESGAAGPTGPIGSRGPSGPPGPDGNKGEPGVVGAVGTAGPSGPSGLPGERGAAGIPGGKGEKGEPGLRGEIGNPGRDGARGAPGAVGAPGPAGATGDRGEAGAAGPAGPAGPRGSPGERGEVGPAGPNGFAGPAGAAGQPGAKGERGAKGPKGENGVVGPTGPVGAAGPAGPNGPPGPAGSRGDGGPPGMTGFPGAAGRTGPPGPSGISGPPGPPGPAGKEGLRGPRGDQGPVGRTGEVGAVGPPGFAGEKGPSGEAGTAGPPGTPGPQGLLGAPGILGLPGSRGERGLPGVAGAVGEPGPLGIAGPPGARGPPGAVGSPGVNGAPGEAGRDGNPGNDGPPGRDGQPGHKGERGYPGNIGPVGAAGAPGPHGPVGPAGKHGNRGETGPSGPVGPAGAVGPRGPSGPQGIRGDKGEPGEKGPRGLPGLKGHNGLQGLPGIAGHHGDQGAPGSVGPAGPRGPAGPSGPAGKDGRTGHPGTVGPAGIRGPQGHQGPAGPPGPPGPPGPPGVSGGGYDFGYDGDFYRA

As for {Gd^T(3)}-GQWHCTTRFPHHYC[hPhe]YG (disulfide 5-14) [Compound ID 932], the “% bound” value in assay [1] came to 59%; in assay [2] it was 79%.
With {Gd^T(3)}-GK([Gly-Gd^T(3)])WHCYTYFPHH[1Nal]CLYG (disulfide 5-14; not fully specified (C-terminus)) [Compound ID 992], the “% bound” value in assay [1] is 75%; in assay [2], 64%.
As to {Gd^T″}-GK([Gly-Gd^T″])WHCYTYFPHHYCLYGK(Gd^T″) (disulfide 5-14 (inferred)) [Compound ID 996], the “% bound” value came to 76% in assay [1] and 67% in assay [2].
Taken in the same sequence, the figures for {Gd^T″}-GK([Gly-Gd^T″])WHCYTYFPHHYCLY[dY]K(Gd^T″) (disulfide 5-14 (inferred); not fully specified (C-terminus)) [Compound ID 988] were 69% and 71%.
Take {Gd^T″}-GK([Gly-Gd^T″])WHCYTYFPHHYCLYYK(Gd^T″) (disulfide 5-14 (inferred); not fully specified (C-terminus)) [Compound ID 987]: the “% bound” value in assay [1] amounted to 62%; in assay [2] it was 68%.
With {Gd^T″}-GK([Gly-Gd^T″])WHCYTYFPHHYCLYFK(Gd^T″) (disulfide 5-14 (inferred); not fully specified (C-terminus)) [Compound ID 985], the “% bound” value in assay [1] stood at 56%; in assay [2] it was 68%.
As to {Gd^T″}-GK([Gly-Gd^T″])WHCYTYFPHHYCVYYK(Gd^T″) (disulfide 5-14 (inferred); not fully specified (C-terminus)) [Compound ID 975], the “% bound” value came to 70% in assay [1] and 64% in assay [2].
On the same counts, the results for {Gd^T″}-GK([Gly-Gd^T″])WHCYTYFPHHYCVYGK(Gd^T″) (disulfide 5-14 (inferred); not fully specified (C-terminus)) [Compound ID 974] are 71% and 69%.
As to {Gd^T″}-GK([Gly-Gd^T″])WHCTTYFPHHYCLYYK(Gd^T″) (disulfide 5-14 (inferred); not fully specified (C-terminus)) [Compound ID 976], the figures for the “% bound” value in assay [1] and in assay [2] were 62% and 57%, respectively.
With {Gd^T″}-GQWHCTTRFPHHYCLYGK(K(Gd^T)Gd^T) (disulfide 5-14 (inferred); reading uncertain) [Compound ID 955], the “% bound” value in assay [1] turned out to be 51%; in assay [2], 36%.
With {Gd^T″}-GQWHCTTRFPHH[1Nal]CLYG (disulfide 5-14) [Compound ID 867], the “% bound” value was determined as 55% in assay [1] and 48% in assay [2].
{Gd^T(3)}-GQWHCTTLFPHH[1Nal]CLYG (disulfide 5-14; not fully specified (C-terminus)) [Compound ID 913]: the “% bound” value in assay [1] was 78%; in assay [2] it was 64%.
As to {Gd^T″}-GQWHCTTDFPH[Dap](Gd^T″)YCLYG (disulfide 5-14) [Compound ID 887], the “% bound” value in assay [1] turned out to be 0%; in assay [2], 16%.
Turning to {Gd^T″}-GQWHCTT[Tyr(3-Cl)]FPHH[dY]CLYG (disulfide 5-14 (inferred); not fully specified (C-terminus)) [Compound ID 916], the “% bound” value in assay [1] is 23%; in assay [2] it was 0%.
Turning to {Gd^T″}-GQWHCTTRFPHH[Bip]CLYG (disulfide 5-14) [Compound ID 873], the entries for the “% bound” value in assay [1] and in assay [2] were 38% and 33%, respectively.
For {Gd^T″}-GQ[Bta]HCTTRFPHHYCLYG (disulfide 5-14) [Compound ID 868], the “% bound” value in assay [1] was determined as 36%; in assay [2], 40%.
As for {Gd^T″}-GK([Gly-Gd^T″])QWHCTTYFPHHYCLYG (disulfide 6-15 (inferred)) [Compound ID 875], the entries for the “% bound” value in assay [1] and in assay [2] were 64% and 60%, respectively.
For the molecule {Gd^T″}-GQWHCTTD[Bpa]PHHYCLYG (disulfide 5-14) [Compound ID 882], the figures for the “% bound” value in assay [1] and in assay [2] were 0% and 13%, respectively.
Consider {Gd^T(3)}-GQWHCTTD[2Nal]PHHYCLYG (disulfide 5-14; not fully specified (C-terminus)) [Compound ID 894], for which the “% bound” value is 20% in assay [1] and 15% in assay [2].
Regarding {Gd^T″}-GQ[2Nal]HCTTRFPHHYCLYG (disulfide 5-14) [Compound ID 872], the “% bound” value was determined as 41% in assay [1] and 35% in assay [2].
On the same counts, the results for {Gd^T(3)}-GQWHCTT[Cha]FPHH[dY]CLYG (disulfide 5-14; not fully specified (C-terminus)) [Compound ID 918] are 19% and 0%.
For the molecule {Gd^T″}-GQWHCTTDFPHHYCL[Bpa]G (disulfide 5-14) [Compound ID 889], the results for the “% bound” value in assay [1] and in assay [2] were 38% and 19%, respectively.
For {Gd^T″}-K(Gd^T″)K(K(Gd^T)Gd^T)GQWHCTTYFPHHYCLYG (disulfide 7-16 (inferred); reading uncertain) [Compound ID 960], the “% bound” value was 30% in assay [1] and 34% in assay [2].
Taken in the same sequence, the figures for {Gd^T(3)}-GQWH[Pen]TTRFPHHYCLYG (disulfide 5-14; not fully specified (C-terminus)) [Compound ID 896] were 50% and 41%.
In the case of GQWHCTTYFPHHYCLYG (disulfide 5-14 (inferred); not fully specified (N-terminus)) [Compound ID 919], the “% bound” value in assay [1] and in assay [2] was 93% throughout.
For {Gd^T″}-GQWHCTTR[Bip]PHHYCLYG (disulfide 5-14) [Compound ID 881], the figures for the “% bound” value in assay [1] and in assay [2] were 19% and 28%, respectively.
Turning to {Gd^T″}-PPWHCTTLFPHH[dY]CLYG (disulfide 5-14 (inferred); not fully specified (C-terminus)) [Compound ID 912], the “% bound” value in assay [1] was found to be 20%; in assay [2] it was 0%.
Consider {Gd^T(3)}-GQWHCTTDFPHHYCL[2Nal]G (disulfide 5-14) [Compound ID 891], for which the “% bound” value in assay [1] is 79%; in assay [2], 70%.
In the case of {Gd^T″}-GQWHCTTDFPH[2Pal]YCLYG (disulfide 5-14) [Compound ID 888], the “% bound” value in assay [1] is 38%; in assay [2], 30%.
On to GQWHCTTYFPHHYCLYG-{AEEA-Gd^G} (disulfide 5-14 (inferred); reading uncertain, no N-terminal chelate printed) [Compound ID 874], for which the entries for the “% bound” value in assay [1] and in assay [2] were 45% and 28%, respectively.
Taken in the same sequence, the figures for {Gd^T″}-AWHCTTRFPAHYCLYG (disulfide 4-13 (inferred)) [Compound ID 937] were 11% and 14%.
On the same counts, the results for {Gd^D}-GK([Gly-Gd^D])QWHCTTYFPHHYCLYG (disulfide 6-15 (inferred)) [Compound ID 961] are 54% and 55%.
Turning to Cbz-GQWHCTTRFPHHYCLYGK (disulfide 5-14 (inferred); not fully specified (residue 18)) [Compound ID 925], the “% bound” value stood at 64% in assay [1] and 62% in assay [2].
As to {Gd^T″}-GQWHCTTYFPHH[dY]CLYG (disulfide 5-14 (inferred); not fully specified (C-terminus)) [Compound ID 914], the entries for the “% bound” value in assay [1] and in assay [2] were 19% and 0%, respectively.
{Gd^T″}-AWHCTTLFPHH[dY]CLYG (disulfide 4-13 (inferred); not fully specified (C-terminus)) [Compound ID 909]: the “% bound” value was 14% in assay [1] and 0% in assay [2].
On to {Gd^T}-GQWHCTTYFPHHYCLYG (disulfide 5-14 (inferred); not fully specified (C-terminus); reading uncertain) [Compound ID 861], for which the entries for the “% bound” value in assay [1] and in assay [2] were 73% and 79%, respectively.
